Results taken from the domain aggregation screens of Martell et al. (2025).

Experiment: soluble fraction after stress (log2 fold change); higher = more stays soluble; pooled small domains, quantitative proteomics
Conditions: stress: pH 4
Summary of the method: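 Aggregation propensity is read out as the fold change in how much of each domain remains soluble after acid stress. The custom small-domain libraries were pooled, held at pH 4 and analysed with high-throughput quantitative proteomics. On the log2 scale used, higher values mean more of the domain stayed soluble.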

Sequence | soluble fraction (log2)
HMIQKTHPALEIVKEYFSSQAASEFEAERFFNYYTSNGWLIGGKTKMKDWQAAARNWILNTAK | -0.255
HMIQNEITLMLQVNGKLRGQIQVPSDASKEQIEQLAKDSEAAQKALAGASPKKIIVVPGRLVNIV | 0.183
HMIQQFTYAFAKDKGVVVLPGRDVLTLGMRAGADPLVLLEARRALGSSFELEPLDRDTYERTLADVFTADA | -1.41
HMIQRLNVNTEVLSTYIRNSNTPIEYLRQKLPNIDKFLKGELEPTFNQVYALSKLINIPTGLLLLKEPIS | 0.359
HMIQSEQIPFSKFLKEVDSGRVVQVEIQGNNINGVLSDGSKFKTYSPNYPELVGKLSDKGVSIVASPV | 0.0829
HMIQTKNVTFTINEKTKIANIPLKSLKILSQEDNRITLSYEKNSLKIDEIISYFSDKNINILDITTD | -1.05
HMIQYRKILELHFKDISQRTISTSVGSSRNTVSDVIKRSEQLGLERLTDNMNNRWLEEFLFPEKQ | -0.177
HMIRALVPGQTLHGEIVGRNGGEVQVRLAEDMILNARVDQNIYLELGKDLTFEVKNNGATLTLSPL | -0.552
HMIRDTTMYPVSVNGKKRYEWTVSKSISDDELKQQVLELEEIKKWIEGHEIKKLIFVPGRAINIV | -0.743
HMIRDVDYNTFVSMVQEGKVGQVEIQEQNNRILFTDKDERTVYKTAMVPDSDLISRLLEAGVSTS | -0.737
HMIRTGEVVTGKVINVKEDQIILNIGFKSDGIITRNEYTNDNSLDLRTVVHEGDEIEAKVLKVNDGEGQVV | 0.12
HMIRVGRPQYKRGEFVSFDFDNGRKKTEMYGRVDVIDSYGTFGQGREVSYDIRASDGILYKHIPESSVYGF | 0.28
HMIRVVSIEDQPWFVAADVLKSLGMPTDKGVGKYLLALGSDERMLTTHGQIGGKGMAVTTIISESGLY | -0.703
HMISDAEWKIMNVLWEEQPRTMMQITKELQEETGWTKHTVMTYLKRMESKKIIHYVEGEKAKLYYS | -0.136
HMISDDLYQAVLDFTLTQDTISISRLQQNFNLGWPRARQLYDQLMQNGIIEPPDEANSAKGAVVIANKRG | -1.06
HMISIKEAVFPFSRFPGVDTLLGPEMKSTGEVMGLADNFGHAYAKSQIASGSKLPESGTLFVSVKNSD | 0.0851
HMISKRFQIDEENAHKRIDIFLSHEFDSISRGIVQELIVKGEVLVNDKVTKRNYKLKTGDLVDITINL | 0.247
HMITDQQKEQLSSLLKQAEAALAKAAANDQVLAAHKDEAVELLKSTSATSADAADLINELTELLKPYQ | -0.605
HMITEDQVIARIGLLSPAEKSLLKDKLERFRRLTLSEQQHLREFHSALDNHDKRTDLLNVLRKYNDWVNQL | -0.736
HMITEQEFQRVAAYVKNKAGINLNEKKVLVQGRLDSYMQRKGYSSYDEFMDRVERFPTGPEAEDLMNALTT | 0.0246
HMITFRINQQSQVGLRLDKFIVQQMPDYSRTRIQSWIKTKNILVNGEGKKSGYALEFDDLVEVTIPE | 0.0398
HMITGREMDVLEALWSSEKPLVASDIPKMKPSLSISSVQLALRNLVKKKLVEVADIVYSGTVLSRSYRP | -0.477
HMITIDNYFNKEKELDFSSFPEALRKGHGFVSKATAHGSSWVSYHSSDAIKKTIDIYLSKLNEYLSNNAKA | 0.0989
HMITLYDLLGVSKTASSQEIKTAFKKKALQYHPDKNDGNPDKEEIFKRINMAYQVLGQPQSRANYDFSITP | 0.0886
HMITNMIIIMKPNASEEAIEKVKHLIESKGLQAHLSKGDEVTIVGVVGDKTRLHDSNIEISEGVDKIVNVT | -0.0219

Sequence | soluble fraction (log2)
HMITPAGVPPALLPVFDQFTLPDGTLRRGAVAAALRALYGPDAPQSGKRYQMEYDRVMAWHSQYFTSLH | -0.42
HMITPKQTAETLGIATSTLRRWASEFEPFLSLRTGVKRTYTTDDITTLKRVKDLFAQGLKTEQVREAL | ≥ 0.43
HMITPNQAAVTLKVSTSTLRRWSSDFEPFLSPRKGVKRLYTIEDIATLKRIQGLYKQGMNTAQVQA | -0.0332
HMITQQEFQQKLEALLSRAEAESFHIKKEEAESFFSGDELTGEQMKLVFDYLLSKKIIVEGYLK | 0.0629
HMITTEEVLNRIRKKVDHPATIRELQKALSIADDDRHRFRRRIRTLVASGALVRIRGNRYGLPSK | 0.0429
HMITTWAGKATTDVYGRVDANPKADAVLVIKTGWTVQVVGSKTAPDGGTWYKLIYNGKTMYANSKFIVK | 0.00106
HMITVEAPMPGKVLSVNVKAGDKVEAGDVLLILEAMKMQNEIMAPEDGTVSDVRVSAGDTVATGDVMVV | -0.33
HMIVIMAKESSPAELEGVKNRIESHPGLRPQVFDGVERIVVGVLGSIPPDLKDEIELLPGVIEVVPISK | -0.211
HMIVVLKHGVTEQQMRNLIAWFKDQGVDVHVSRGIYQTVLGLVGDTSDIDVDLLRMLDIVDAVKRIT | -0.785
HMIVVMAADSSREDLDLVQGRIEARGLRAQISQGVERIVIGVLGSLPPDLKDEMELLPGVREVLVIS | -1.19
HMIYGNGVTDLKDLANGATIIIPADDSNETRALFLLQQEGLIKLPDDADAAKGVSTLDIVDGGGWVTSM | -0.381
HMIYKLIADRLKNRINSDEFEVGDALPSEKALAGELEVSVMTIRKALTLLESEKLIVKRHGSGSYVARKSN | 0.0567
HMIYRTTSVPIDNISTQKFNLQEGWIEMNKNEVEDFIRQKNLELVVTDSNVMLDKFALNGDPNKFKVFKY | 0.104
HMKADTSPEAQKKIIAAFEPYSVNKDQIEKLIQRRIDSITPAQVIRLRKILASLKDGMSSPEDWFE | 0.076
HMKAERLLALLTILLSGKRVSARWLSEELEVSERTVYRDVEALSEAGFPVYATTGRDGGFSLIDGF | -1.18
HMKAKPTLLTPYEERLKGWLETDSRRPKRDRRTGLALFAKLQQEGFTGSYTRVTEYIRRWRDSGG | 0.0729
HMKALPSAEDVALARESGRVLSTVLQTRAETQQIDFHDDKGAVRSVTLPTTALRLLLDVLTEIGQGNAV | -0.161
HMKALRNQDVVVGKPLAMAVYDQHGVLLLGRGHVVISESQRQQLLERGFSIDAEQLGRLRAAIEATQRV | 0.0921
HMKALYHQLVDLLKKRMESGMIPHDKLPSERELTAQYGVSRTTVRLALQELENTGYIYRRHGKGTFVSDI | 0.1
HMKANIGDQVFTQLKDQIINGEWRPGDRIPSEAQLIQLFGVSRGTVRQAVQKLAGEGLIVTRHGEGSFVQG | -0.0317
HMKAQLQHIIGSNIKLARNTQGYTQEGLAERAEISVEHLKQVERGKKMLSVESLVNVANALQVSVDSLV | -0.205
HMKAQVKSVLDDIPGIGQTRRKALMRYFKSLEKIREASVEELKEADAMNERAAQSVYAFFHK | -0.222
HMKAQVKSVLDEIPGVGPTRRKALMKHFTSIEEIKQAEFETLLEAEGMNRAAAQSVYDFFHN | -0.491
HMKDESQLVGAEGKAVTPLRPTGVALIGEKRLDVLTEGEFIPRNSDIIVSRVEGNKIIVKLKN | 0.22
HMKDHLRFEILSFAGDLRNGVVKTRQEFETIFAFYDKYEEIITALKVHNGYVDSEFDFIKEKFKELKSK | 0.194

Sequence | soluble fraction (log2)
HMKDLQAISERMEEIISFAKANDNEISLFIVQDIIKNKKTGIDEDLLNMALYQIKEQGIKVLPA | -1.05
HMKDSIQIPNVVGMTIKDAQSQYGKSFSIIEQNRTESTKPAGTILEQTPAGGDTVSKRDNIIIRVVVSLG | 0.36
HMKDSKSALQEYALERKMGLPVYEVVDRSGPDHAPQFVIAVSLGEWRLEAKGASKRQAEQQAASLMLEEI | -0.0445
HMKDYTIDDIINSKVEHPLGGYQSRFKVGEYEVSVVGGRQTNHGDFIHTFELAIFDKNNNFLRNLTPVTID | -0.411
HMKEATTSPLDGIPGIGSKRKKALLSHFGSARSVARADIPDLMRVDGISRQVAETIYGWFHN | 0.311
HMKEDFPLLEQLRYTGEGADVTGTAEKMESIQALRSAADSGGFRATLGDIQQIPGGGLRFTLSLRGSR | -0.226
HMKEDNPIVLINLQAKEGEWVFKGTGLPYVGKYHQHKNGEYMIGIGVLNLNHELKPDEIIIPNPNK | 0.0576
HMKEEDYEVFMRLINVRGIGPKSALNILGVISGQEMIQAIENDDIKRLKSLPGIGAKTAGQIVLDLKGKFV | -0.705
HMKEFIPPVLDDVLKFFSGSLLPDWENQGRLFFSHYNSQGWRKGTGVQVTDWDSLANKWILDEKIKRDARS | -0.214
HMKEGTIPPVVNRTLSDAEFVLKSYGYELGRVSEQHSDMPKDIVIKQSPEAGTVADPGTRVDVVVSIGKA | 0.0175
HMKEHDTLALRLTAILRKLNDGEKLVPRELAEEFNVGIRTIQRDLTERLSFLDLEKTNGAYSLPTRNL | -0.36
HMKEIIFRGIGEFILDYKSLVIEFLNKNNYANLSMDAPVDEVNKAVANNMLNEDFVTELLLFQRRVE | -2.16
HMKEILLITGKGLHSGQDDVYKSAQLSKLRYSVPEFIKSNLEISQLILSVETPLQKDGGDGALLIK | -0.192
HMKEILVGVEPLSKKQIIIKKGIKGRSDYIIFEKKNYGLPENLKPEEVSIEIALKIIDEKKKRKA | 0.22
HMKEIPTKKGDMLEIYEANGKYILKYPTFNITMPEVVKEIPKEAVDSYLAGKHDGEELINYANFGFWKS | 0.315
HMKEKDAYTSEILDTLKNAKLLVVEGTVYPLLTRLKNDGLLNYRWEESTSGPPRKYYGLTDEG | -0.449
HMKEKIIKEPYDLFTTDKIGQALEVQALLARQGIKVQRRVDGTKSTLFLENYTQSEKDQALLAVVRSGIV | 0.167
HMKEKPLWAIRITELREEHYFTQTDVSKALGIAQTTYAGYETGRHEPDFETMIKIADIYKVSLDYLIGR | -0.288
HMKELFETLPDVLDAKLLASALSISKAGAYQLLNRPDFPTLQVGGWKLVTKQKLALWMEQHTN | -0.511
HMKELFGQRLREQRLKQNLTLEQLAEKANLSPNYVGMVERGLKEPGLATIVKLLNGLNVSADTLL | 0.155
HMKELLTKQQREEILETVKTKTPKDFGYTAEHWTTGFLGKWIEEHYEVEYKSKTSLYLVFKKASFTYHKPG | 0.0606
HMKELTARQIEILDFITNYEWRHGYWPSIRNIQVQFSYKSTNAVMGHLRALERKGAIERIPGQARTFRIH | 0.102
HMKEPFETMPDVMDAKQIAEALQISKAGAYNLLNSPDFPTLRIGGRKLVMKNELVEWLKSHTNRK | 0.126
HMKEPPTLEEIKNYFASKLSTELESEKFFNYFESNGWLVGGKTPMKNWQSAANNWLINMSKFN | -0.323
HMKEPQLGPVRKWSDQTGNFGIEAQFVKREGDNILLKRADQRTISIPLEKLSDADQEHLKQEEQKQAME | -0.312
